Here are results for 29 sequences from the supplement of paper PMC10567573.

± gives the standard deviation.

A short description of this series: protein stability index of a GFP-peptide fusion (GPS, HEK-293T) (PSI 1-6); higher = more stable.
Where [1] appears, read: treatment: DMSO, c terminus: a fixed tail appended.
Setting [2] is: treatment: MLN4924 1 uM, 8 h, c terminus: a fixed tail appended.
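Further: 24-mer peptide tiles fused after GFP, lentivirally expressed, FACS-sorted into six equal bins by GFP/DsRed ratio, decoded by Illumina sequencing, PSI is the read-weighted mean bin number.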

For the sequence TKLSLLAIHGYTVWAHNLIAIARL [FBXO33], the protein stability index is 3.19 ± 0.36 under setting [1] and 3.22 ± 0.23 under setting [2].

Consider TKRCFRLAPTFSNLLLQPTTNPHT [SMG5], for which the protein stability index came to 2.41 ± 0.22 under setting [1] and 2.59 ± 0.29 under setting [2].

With TKVVYLASETFNYSAIDRVKSRGK [PI4K2A], the protein stability index was 2.85 ± 0.18 under setting [1] and 3.17 ± 0.31 under setting [2].

As to TLIVVDASGLGLEITTQFLIYASY [SLC19A2], the protein stability index stood at 3.32 ± 0.54 under setting [1] and 3.32 ± 0.4 under setting [2].

As for TLQQFNIKLRPPGAEKPSWLEEQ [ARFIP2], the protein stability index reads like this: (treatment: DMSO, c terminus: native) 3.55 ± 0.34; (treatment: MLN4924 1 uM, 8 h, c terminus: native) 3.62 ± 0.35.

For the sequence TLRPTDSQSHCYRTCFSPASDGSD [PCDHGC5], the protein stability index is, setting by setting: under setting [1], 3.93 ± 0.25; under setting [2], 4.04 ± 0.28.

In turn, TLRSHLKSFSMAKGLNARMMRGLS [RAB40A] displayed a protein stability index under setting [1] of 2.47 ± 0.19 and a protein stability index under setting [2] of 2.78 ± 0.24.

On to TLVSSGSGTMGAAKVTGEVLDILT [FLOT1], for which the protein stability index is, setting by setting: under setting [1], 2.97 ± 0.44; under setting [2], 2.91 ± 0.49.

On to TLWDVFGANKEVQELLERGLLQLD [RSAD1], for which the protein stability index by setting is: under setting [1], 2.33 ± 0.25; under setting [2], 2.64 ± 0.11.

On to TLWKHQFAWPFYQPVDAIKLNLPD [BRD3], for which the protein stability index reads like this: under setting [1], 2.46 ± 0.63; under setting [2], 2.3 ± 0.13.

TMQLFSKQNPSRQEVTKLQQQVKT [FBXO28]: the protein stability index is, setting by setting: under setting [1], 3.74 ± 0.2; under setting [2], 3.75 ± 0.28.

As to TNFVSRYDPRFNSWIQLPPMQERR [KLHL14], the protein stability index by setting is: under setting [1], 3.22 ± 0.084; under setting [2], 3.34 ± 0.31.

TNFVVQVSVFIGVLIDLWKITKVM [CLPTM1]: the protein stability index is, setting by setting: under setting [1], 3.1 ± 0.67; under setting [2], 3.39 ± 0.72.

Turning to TPMATKRSGAGVALLNDHIYVVGG [KLHL12], the protein stability index is, setting by setting: under setting [1], 2.91 ± 0.26; under setting [2], 2.71 ± 0.31.

For the sequence TPMRVALAGTFHYYSCERAKKAMG [NSDHL], the protein stability index is, setting by setting: under setting [1], 2.48 ± 0.5; under setting [2], 2.38 ± 0.16.

As for TPPLKNVRKKRFRKTQKKVPDVKE [TAF7L], the protein stability index came to 4.84 ± 0.37 under setting [1] and 4.73 ± 0.22 under setting [2].

For the sequence TPYVRWNYVAKNFAQALGCVLYAC [SOAT2], the protein stability index is, setting by setting: under setting [1], 2.7 ± 0.84; under setting [2], 2.41 ± 0.34.

Regarding TSAAALSPMSAATLGGLNPSPSEV [SMTNL2], the protein stability index stood at 4.61 ± 0.21 under setting [1] and 4.62 ± 0.31 under setting [2].

For the sequence TSDLGTTDVQKKKLVDAIVSGDTS [RIPK4], the protein stability index was found to be 4.97 ± 0.21 under setting [1] and 5.09 ± 0.12 under setting [2].

Regarding TSPWSECTKTCGVGVRMRDVKCYQ [ADAMTSL2], the protein stability index reads like this: under setting [1], 2.81 ± 0.21; under setting [2], 2.44 ± 0.38.

For TSTKTDSEEGSWAQTLAYGDMNHE [PPFIA4], under setting [2], the protein stability index came to 4.66 ± 0.54.

In the case of TTSPNVLWPTPGHLSPLVVHRQLS [ESR2], the protein stability index by setting is: under setting [1], 2.85 ± 0.29; under setting [2], 2.72 ± 0.41.

As for TVKFANNPSQKTGQALLTHLYQSS [ELAVL3], the protein stability index reads like this: under setting [1], 3.01 ± 0.22; under setting [2], 3.03 ± 0.38.

Regarding TVQSRPRIDGKLDSPSRSPSKVEV [C2CD2L], the protein stability index by setting is: under setting [1], 4.78 ± 0.21; under setting [2], 4.65 ± 0.37.

As to TWRHRETLIIAVLVSASIANLWLW [FATE1], the protein stability index by setting is: under setting [1], 3.2 ± 0.37; under setting [2], 2.77 ± 0.26.

In the case of TYEPFCKVPVITSSKEEQKLIATS [KCTD10], the protein stability index runs as follows: under setting [1], 4.27 ± 0.2; under setting [2], 4.16 ± 0.37.

With TYVSPPGNEEEESKIFTTLDPASL [DDIT3], the protein stability index is, setting by setting: under setting [1], 4.91 ± 0.26; under setting [2], 5.08 ± 0.065.

As for VAEKVVVITKHNDDEQYAWESSAG [HSP90AB1], the protein stability index is, setting by setting: under setting [1], 4.53 ± 0.11; under setting [2], 4.34 ± 0.29.

With VAHVKHLSASQKALKEKEKASWSS [COX4I1], the protein stability index runs as follows: under setting [1], 3.57 ± 0.4; under setting [2], 3.83 ± 0.34.
